The text below walks through data of US20230416343A1.

Like-named read-outs stand apart in the source and are kept apart here.

Assay [1] has as its target SARS-CoV-2 variant spike protein del 69-79 plus N439K on HEK293 cells (SARS-CoV-2) (UniProt P0DTC2).
For assay [2], the target named is SARS-CoV-2 variant spike protein del 69-79 plus N501Y and D614G on HEK293 cells (SARS-CoV-2) (UniProt P0DTC2).
The target in assay [3] is SARS-CoV-2 variant spike protein del 69-79 plus N501Y on HEK293 cells (SARS-CoV-2) (UniProt P0DTC2).
In assay [4] the target is SARS-CoV-2 variant spike protein del 69-79 plus N439K on HEK293 cells (SARS-CoV-2) (UniProt P0DTC2). The source holds these as a separate data set.
For assay [5], the target named is SARS-CoV-2 Delta variant S protein expressed on HEK293 cells (SARS-CoV-2) (UniProt P0DTC2).
The target of assay [6] is SARS-CoV-2 Delta Plus variant S protein expressed on HEK293 cells (SARS-CoV-2) (UniProt P0DTC2).
In assay [7] the target is SARS-CoV-2 Delta variant S protein expressed on HEK293 cells (SARS-CoV-2) (UniProt P0DTC2). The source holds these as a separate data set.

The term EC50 denotes the concentration at which the effect is half-maximal. One may read the EC50 (read off the curve) as the concentration at which the effect is half-maximal. As for S1D7270LALA antibody (STI-2020), the EC50 in assay [1] was determined as 70 µg/mL; in assay [2], 172 µg/mL; in assay [5], 0.105 µg/mL; in assay [6], 0.187 µg/mL; in assay [7], 0.106 µg/mL. In addition, the EC50 (read off the curve) is 0.09 µg/mL in assay [3] and 0.07 µg/mL in assay [4].
